Laboratory results: article PMC8667020

Biological target: ASC^(H118A,F136A,W169A,K174A, L177A-L178A,L192A) (ASC-YFP binding site mutant) (UniProt Q9ULZ3)
Assay: flow cytometry of ASC-YFP speck formation in transfected HEK293 cells
Conditions: parent: est. 37, read off a plot

ASC-YFP, sequence (Q9ULZ3 whole entry H118A/F163A/W169A/K174A/L177A/L178A/L192A, change not shown): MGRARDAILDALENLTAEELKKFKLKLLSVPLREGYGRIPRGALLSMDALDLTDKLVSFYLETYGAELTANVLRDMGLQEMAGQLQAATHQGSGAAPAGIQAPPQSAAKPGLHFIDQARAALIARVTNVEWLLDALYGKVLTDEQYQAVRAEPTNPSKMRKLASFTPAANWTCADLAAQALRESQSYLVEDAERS

other: ASC specks (%): 13%
Substance: ASC-YFP (from UniProt Q9ULZ3) H118A; F136A; W169A; K174A; L177A; L178A; L192A
